Experimental data published in US20140178390A1 (published 2014).

Molecular target: Human CXCR7 (UniProt P25106 1-362)
Assay: FACS competition with biotinylated SDF-1

Sequence of Human CXCR7 (P25106 whole entry): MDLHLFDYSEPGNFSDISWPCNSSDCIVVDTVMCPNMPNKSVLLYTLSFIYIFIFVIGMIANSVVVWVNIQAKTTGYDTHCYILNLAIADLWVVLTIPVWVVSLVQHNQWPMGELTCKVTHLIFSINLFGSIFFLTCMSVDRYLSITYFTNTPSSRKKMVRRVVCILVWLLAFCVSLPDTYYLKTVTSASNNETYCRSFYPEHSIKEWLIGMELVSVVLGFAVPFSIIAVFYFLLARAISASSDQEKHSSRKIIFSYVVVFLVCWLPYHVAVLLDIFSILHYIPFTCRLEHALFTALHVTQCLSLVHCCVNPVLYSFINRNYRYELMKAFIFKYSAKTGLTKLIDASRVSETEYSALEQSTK

B1: Nanobody 07C03 with Tag-1 (VHH)
VHH: EVQLVESGGGLVQAGESLTLSCAASGRTLSAYIMGWFRQAPGKEREFVAGIWSGGYTHLADSAKGRFSISRDNAKNTVYLQMNGLKPEDTAVYYCAAGLRGRQYSNWGQGTQVTVSS
B1 was tested, and the IC50 was 7.77 nM.
